Data taken from US20210139548A1 (published 2021).
Each block holds one binder with its values, some of them ahead of it. *1 amine or outer side, *2 acyl side, *3 side chain or, on linkers, in order; H or OH if unused. Side-chain parts run from the residue outwards. The star is where a group is joined. C18 diacid = O=C(O)CCCCCCCCCCCCCCCCC(=O)*; γGlu = O=C(O)[C@H](CCC(=O)[*:2])N[*:1]; Isovaleryl = CC(C)CC(=O)*; AEEA = NCCOCCOCC(=O)O

Molecular target: T1, human neuropeptide Y2 receptor (human, UniProt P49146 1-381)
T1 construct: whole, on cells; also called hNPY2 receptor; hNPY2-R
T1 sequence (looked up): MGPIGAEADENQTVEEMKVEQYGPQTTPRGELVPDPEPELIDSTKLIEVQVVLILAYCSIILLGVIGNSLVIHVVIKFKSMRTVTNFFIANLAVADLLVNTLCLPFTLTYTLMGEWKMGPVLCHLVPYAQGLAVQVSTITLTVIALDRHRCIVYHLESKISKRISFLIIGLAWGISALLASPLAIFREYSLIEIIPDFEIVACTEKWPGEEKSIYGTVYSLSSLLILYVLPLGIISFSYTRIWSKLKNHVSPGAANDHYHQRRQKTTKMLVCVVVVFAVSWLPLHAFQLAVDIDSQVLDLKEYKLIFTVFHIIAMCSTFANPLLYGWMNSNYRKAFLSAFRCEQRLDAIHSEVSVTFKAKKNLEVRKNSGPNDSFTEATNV
Experiment: radioligand competition (125I-PYY(1-36)), hNPY2R membranes
Outline: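 Commercial human Y2 receptor membranes (0.5 μg protein/well) were incubated with peptide for 2 h at room temperature in 50 mM HEPES, 5 mM MgCl₂, 1 mM CaCl₂, pH 7.4, with 0.2% ovalbumin. Bound radioligand was separated on PEI-soaked GF/C filters and counted by scintillation, and IC₅₀ came from nonlinear sigmoidal regression.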

Ki: 0.95 nM
B1: Compound 103 (peptide)
peptide: Isovaleryl-APAK([AEEA-AEEA-γGlu-C18 diacid])PEEDASEEELQRYYVSLRHYYNWLTRQRY-NH2
SMILES: CC(C)CC(=O)N[C@@H](C)C(=O)N1CCC[C@H]1C(=O)N[C@@H](C)C(=O)N[C@@H](CCCCNC(=O)COCCOCCNC(=O)COCCOCCNC(=O)CC[C@H](NC(=O)CCCCCCCCCCCCCCCCC(=O)O)C(=O)O)C(=O)N1CCC[C@H]1C(=O)N[C@@H](CCC(=O)O)C(=O)N[C@@H](CCC(=O)O)C(=O)N[C@@H](CC(=O)O)C(=O)N[C@@H](C)C(=O)N[C@@H](CO)C(=O)N[C@@H](CCC(=O)O)C(=O)N[C@@H](CCC(=O)O)C(=O)N[C@@H](CCC(=O)O)C(=O)N[C@@H](CC(C)C)C(=O)N[C@@H](CCC(N)=O)C(=O)N[C@@H](CCCNC(=N)N)C(=O)N[C@@H](Cc1ccc(O)cc1)C(=O)N[C@@H](Cc1ccc(O)cc1)C(=O)N[C@H](C(=O)N[C@@H](CO)C(=O)N[C@@H](CC(C)C)C(=O)N[C@@H](CCCNC(=N)N)C(=O)N[C@@H](Cc1c[nH]cn1)C(=O)N[C@@H](Cc1ccc(O)cc1)C(=O)N[C@@H](Cc1ccc(O)cc1)C(=O)N[C@@H](CC(N)=O)C(=O)N[C@@H](Cc1c[nH]c2ccccc12)C(=O)N[C@@H](CC(C)C)C(=O)N[C@H](C(=O)N[C@@H](CCCNC(=N)N)C(=O)N[C@@H](CCC(N)=O)C(=O)N[C@@H](CCCNC(=N)N)C(=O)N[C@@H](Cc1ccc(O)cc1)C(N)=O)[C@@H](C)O)C(C)C

Ki: 5.43 nM
B2: Compound 111 (peptide)
peptide: Isovaleryl-APEK([AEEA-AEEA-γGlu-C18 diacid])PEEDAEPEELQRYYVELRHYYNWLTRQRY-NH2
SMILES: CC(C)CC(=O)N[C@@H](C)C(=O)N1CCC[C@H]1C(=O)N[C@@H](CCC(=O)O)C(=O)N[C@@H](CCCCNC(=O)COCCOCCNC(=O)COCCOCCNC(=O)CC[C@H](NC(=O)CCCCCCCCCCCCCCCCC(=O)O)C(=O)O)C(=O)N1CCC[C@H]1C(=O)N[C@@H](CCC(=O)O)C(=O)N[C@@H](CCC(=O)O)C(=O)N[C@@H](CC(=O)O)C(=O)N[C@@H](C)C(=O)N[C@@H](CCC(=O)O)C(=O)N1CCC[C@H]1C(=O)N[C@@H](CCC(=O)O)C(=O)N[C@@H](CCC(=O)O)C(=O)N[C@@H](CC(C)C)C(=O)N[C@@H](CCC(N)=O)C(=O)N[C@@H](CCCNC(=N)N)C(=O)N[C@@H](Cc1ccc(O)cc1)C(=O)N[C@@H](Cc1ccc(O)cc1)C(=O)N[C@H](C(=O)N[C@@H](CCC(=O)O)C(=O)N[C@@H](CC(C)C)C(=O)N[C@@H](CCCNC(=N)N)C(=O)N[C@@H](Cc1c[nH]cn1)C(=O)N[C@@H](Cc1ccc(O)cc1)C(=O)N[C@@H](Cc1ccc(O)cc1)C(=O)N[C@@H](CC(N)=O)C(=O)N[C@@H](Cc1c[nH]c2ccccc12)C(=O)N[C@@H](CC(C)C)C(=O)N[C@H](C(=O)N[C@@H](CCCNC(=N)N)C(=O)N[C@@H](CCC(N)=O)C(=O)N[C@@H](CCCNC(=N)N)C(=O)N[C@@H](Cc1ccc(O)cc1)C(N)=O)[C@@H](C)O)C(C)C

Ki: 1.1 nM
B3: Compound 107 (peptide)
peptide: Isovaleryl-APEK([AEEA-AEEA-γGlu-C18 diacid])PEEDASPEELQKYYVALRHYYNWLTRQRY-NH2
SMILES: CC(C)CC(=O)N[C@@H](C)C(=O)N1CCC[C@H]1C(=O)N[C@@H](CCC(=O)O)C(=O)N[C@@H](CCCCNC(=O)COCCOCCNC(=O)COCCOCCNC(=O)CC[C@H](NC(=O)CCCCCCCCCCCCCCCCC(=O)O)C(=O)O)C(=O)N1CCC[C@H]1C(=O)N[C@@H](CCC(=O)O)C(=O)N[C@@H](CCC(=O)O)C(=O)N[C@@H](CC(=O)O)C(=O)N[C@@H](C)C(=O)N[C@@H](CO)C(=O)N1CCC[C@H]1C(=O)N[C@@H](CCC(=O)O)C(=O)N[C@@H](CCC(=O)O)C(=O)N[C@@H](CC(C)C)C(=O)N[C@@H](CCC(N)=O)C(=O)N[C@@H](CCCCN)C(=O)N[C@@H](Cc1ccc(O)cc1)C(=O)N[C@@H](Cc1ccc(O)cc1)C(=O)N[C@H](C(=O)N[C@@H](C)C(=O)N[C@@H](CC(C)C)C(=O)N[C@@H](CCCNC(=N)N)C(=O)N[C@@H](Cc1c[nH]cn1)C(=O)N[C@@H](Cc1ccc(O)cc1)C(=O)N[C@@H](Cc1ccc(O)cc1)C(=O)N[C@@H](CC(N)=O)C(=O)N[C@@H](Cc1c[nH]c2ccccc12)C(=O)N[C@@H](CC(C)C)C(=O)N[C@H](C(=O)N[C@@H](CCCNC(=N)N)C(=O)N[C@@H](CCC(N)=O)C(=O)N[C@@H](CCCNC(=N)N)C(=O)N[C@@H](Cc1ccc(O)cc1)C(N)=O)[C@@H](C)O)C(C)C

Ki: 0.77 nM
B4: Compound 110 (peptide)
peptide: Isovaleryl-APEK([AEEA-AEEA-γGlu-C18 diacid])PEEDAEPEEIQRYYVSLRHYYNWLTRQRY-NH2
SMILES: CC[C@H](C)[C@H](NC(=O)[C@H](CCC(=O)O)NC(=O)[C@H](CCC(=O)O)NC(=O)[C@@H]1CCCN1C(=O)[C@H](CCC(=O)O)NC(=O)[C@H](C)NC(=O)[C@H](CC(=O)O)NC(=O)[C@H](CCC(=O)O)NC(=O)[C@H](CCC(=O)O)NC(=O)[C@@H]1CCCN1C(=O)[C@H](CCCCNC(=O)COCCOCCNC(=O)COCCOCCNC(=O)CC[C@H](NC(=O)CCCCCCCCCCCCCCCCC(=O)O)C(=O)O)NC(=O)[C@H](CCC(=O)O)NC(=O)[C@@H]1CCCN1C(=O)[C@H](C)NC(=O)CC(C)C)C(=O)N[C@@H](CCC(N)=O)C(=O)N[C@@H](CCCNC(=N)N)C(=O)N[C@@H](Cc1ccc(O)cc1)C(=O)N[C@@H](Cc1ccc(O)cc1)C(=O)N[C@H](C(=O)N[C@@H](CO)C(=O)N[C@@H](CC(C)C)C(=O)N[C@@H](CCCNC(=N)N)C(=O)N[C@@H](Cc1c[nH]cn1)C(=O)N[C@@H](Cc1ccc(O)cc1)C(=O)N[C@@H](Cc1ccc(O)cc1)C(=O)N[C@@H](CC(N)=O)C(=O)N[C@@H](Cc1c[nH]c2ccccc12)C(=O)N[C@@H](CC(C)C)C(=O)N[C@H](C(=O)N[C@@H](CCCNC(=N)N)C(=O)N[C@@H](CCC(N)=O)C(=O)N[C@@H](CCCNC(=N)N)C(=O)N[C@@H](Cc1ccc(O)cc1)C(N)=O)[C@@H](C)O)C(C)C

Ki: 0.99 nM
B5: Compound 108 (peptide)
peptide: Isovaleryl-APEK([AEEA-AEEA-γGlu-C18 diacid])PEEDASPEELQRYYVELRHYYNWLTRQRY-NH2
SMILES: CC(C)CC(=O)N[C@@H](C)C(=O)N1CCC[C@H]1C(=O)N[C@@H](CCC(=O)O)C(=O)N[C@@H](CCCCNC(=O)COCCOCCNC(=O)COCCOCCNC(=O)CC[C@H](NC(=O)CCCCCCCCCCCCCCCCC(=O)O)C(=O)O)C(=O)N1CCC[C@H]1C(=O)N[C@@H](CCC(=O)O)C(=O)N[C@@H](CCC(=O)O)C(=O)N[C@@H](CC(=O)O)C(=O)N[C@@H](C)C(=O)N[C@@H](CO)C(=O)N1CCC[C@H]1C(=O)N[C@@H](CCC(=O)O)C(=O)N[C@@H](CCC(=O)O)C(=O)N[C@@H](CC(C)C)C(=O)N[C@@H](CCC(N)=O)C(=O)N[C@@H](CCCNC(=N)N)C(=O)N[C@@H](Cc1ccc(O)cc1)C(=O)N[C@@H](Cc1ccc(O)cc1)C(=O)N[C@H](C(=O)N[C@@H](CCC(=O)O)C(=O)N[C@@H](CC(C)C)C(=O)N[C@@H](CCCNC(=N)N)C(=O)N[C@@H](Cc1c[nH]cn1)C(=O)N[C@@H](Cc1ccc(O)cc1)C(=O)N[C@@H](Cc1ccc(O)cc1)C(=O)N[C@@H](CC(N)=O)C(=O)N[C@@H](Cc1c[nH]c2ccccc12)C(=O)N[C@@H](CC(C)C)C(=O)N[C@H](C(=O)N[C@@H](CCCNC(=N)N)C(=O)N[C@@H](CCC(N)=O)C(=O)N[C@@H](CCCNC(=N)N)C(=O)N[C@@H](Cc1ccc(O)cc1)C(N)=O)[C@@H](C)O)C(C)C

Ki: 0.94 nM
B6: Compound 109 (peptide)
peptide: Isovaleryl-APEK([AEEA-AEEA-γGlu-C18 diacid])PEEAASPEELQRYYVSLRHYYNWLTRQRY-NH2
SMILES: CC(C)CC(=O)N[C@@H](C)C(=O)N1CCC[C@H]1C(=O)N[C@@H](CCC(=O)O)C(=O)N[C@@H](CCCCNC(=O)COCCOCCNC(=O)COCCOCCNC(=O)CC[C@H](NC(=O)CCCCCCCCCCCCCCCCC(=O)O)C(=O)O)C(=O)N1CCC[C@H]1C(=O)N[C@@H](CCC(=O)O)C(=O)N[C@@H](CCC(=O)O)C(=O)N[C@@H](C)C(=O)N[C@@H](C)C(=O)N[C@@H](CO)C(=O)N1CCC[C@H]1C(=O)N[C@@H](CCC(=O)O)C(=O)N[C@@H](CCC(=O)O)C(=O)N[C@@H](CC(C)C)C(=O)N[C@@H](CCC(N)=O)C(=O)N[C@@H](CCCNC(=N)N)C(=O)N[C@@H](Cc1ccc(O)cc1)C(=O)N[C@@H](Cc1ccc(O)cc1)C(=O)N[C@H](C(=O)N[C@@H](CO)C(=O)N[C@@H](CC(C)C)C(=O)N[C@@H](CCCNC(=N)N)C(=O)N[C@@H](Cc1c[nH]cn1)C(=O)N[C@@H](Cc1ccc(O)cc1)C(=O)N[C@@H](Cc1ccc(O)cc1)C(=O)N[C@@H](CC(N)=O)C(=O)N[C@@H](Cc1c[nH]c2ccccc12)C(=O)N[C@@H](CC(C)C)C(=O)N[C@H](C(=O)N[C@@H](CCCNC(=N)N)C(=O)N[C@@H](CCC(N)=O)C(=O)N[C@@H](CCCNC(=N)N)C(=O)N[C@@H](Cc1ccc(O)cc1)C(N)=O)[C@@H](C)O)C(C)C
